Data published in patent US20230071765.

Target: human insulin (disulfide-bonded heterodimer), P01308
Sequence (P01308 whole entry, looked up, one chain of several): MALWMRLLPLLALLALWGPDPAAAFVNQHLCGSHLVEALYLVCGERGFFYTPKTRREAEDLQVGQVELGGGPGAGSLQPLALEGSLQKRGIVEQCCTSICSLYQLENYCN

Row | Protein | disulfide reduction activity by RP-HPLC (main HIC fraction after drying and reconstitution in saline) | conversion of insulin heterodimer peak (RP-HPLC insulin reduction, 0.025 mM ORP-100, pH 6, 60 min)
1 | ORP100S (fully monocysteinic human thioredoxin-1, reduced form) (protein) VKQIESKTAFQEALDAAGDKLVVVDFSATWCGPSKMIKPFFHSLSEKYSNVIFLEVDVDDSQDVASESEVKSMPTFQFFKKGQKVGEFSGANKEKLEATINELV | the main fraction showed comparable disulfide reduction activity by DTNB and RP-HPLC to thioredoxin compositions purified without removing the red fraction | –
2 | ORP-100 (C35S monocysteinic active site thioredoxin) (protein) VKQIESKTAFQEALDAAGDKLVVVDFSATWCGPSKMIKPFFHSLSEKYSNVIFLEVDVDDCQDVASECEVKCMPTFQFFKKGQKVGEFSGANKEKLEATINELV | – | even at acidic pH 6 ORP-100 is able to markedly reduce the insulin heterodimer peak, and at 1/500 the concentration of NAC
